Source: IntAct's records for PubMed 11113154

Key:
[1] = target: bem1_yeast BEM1 (UniProt P29366)
[2] = target: bem1_yeast BEM1 (UniProt P29366); remark: listed apart in the source

Sequence of bem1_yeast BEM1 (P29366 whole entry): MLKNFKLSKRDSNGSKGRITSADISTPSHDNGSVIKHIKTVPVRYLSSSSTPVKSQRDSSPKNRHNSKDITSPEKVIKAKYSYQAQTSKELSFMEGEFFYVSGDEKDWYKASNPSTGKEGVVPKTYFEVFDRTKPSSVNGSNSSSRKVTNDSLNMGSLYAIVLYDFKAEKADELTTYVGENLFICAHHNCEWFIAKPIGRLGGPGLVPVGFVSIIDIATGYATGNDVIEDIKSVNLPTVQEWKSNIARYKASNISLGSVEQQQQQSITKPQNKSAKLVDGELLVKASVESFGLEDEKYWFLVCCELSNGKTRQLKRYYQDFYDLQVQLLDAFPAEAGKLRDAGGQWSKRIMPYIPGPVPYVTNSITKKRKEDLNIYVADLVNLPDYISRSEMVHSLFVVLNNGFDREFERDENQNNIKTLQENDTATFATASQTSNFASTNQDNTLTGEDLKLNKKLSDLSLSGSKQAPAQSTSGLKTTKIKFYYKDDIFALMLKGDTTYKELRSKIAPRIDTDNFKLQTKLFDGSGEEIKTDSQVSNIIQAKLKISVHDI
Sequence of Cell division control protein 42 (Saccharomyces cerevisiae), P19073 Q61L (P19073 whole entry Q61L): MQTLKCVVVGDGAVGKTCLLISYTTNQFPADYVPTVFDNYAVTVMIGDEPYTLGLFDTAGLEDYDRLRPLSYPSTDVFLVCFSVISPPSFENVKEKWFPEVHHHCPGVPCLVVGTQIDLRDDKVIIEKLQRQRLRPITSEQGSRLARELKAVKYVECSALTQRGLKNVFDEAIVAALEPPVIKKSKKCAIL
Sequence of Cell division control protein 42 (Saccharomyces cerevisiae), P19073 D57Y (P19073 whole entry D57Y): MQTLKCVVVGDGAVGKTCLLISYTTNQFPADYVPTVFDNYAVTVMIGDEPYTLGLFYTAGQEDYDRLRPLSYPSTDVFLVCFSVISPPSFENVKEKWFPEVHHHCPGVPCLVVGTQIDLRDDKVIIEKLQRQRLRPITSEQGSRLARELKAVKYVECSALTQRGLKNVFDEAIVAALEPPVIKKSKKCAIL

| effect of a mutation on the interaction [1] | effect of a mutation on the interaction [2] | Substance |
| --- | --- | --- |
| disrupting interaction strength | – | Cell division control protein 42 (Saccharomyces cerevisiae), P19073 D57Y |
| – | with no effect | Cell division control protein 42 (Saccharomyces cerevisiae), P19073 Q61L |
